In test [1] the target is T1, Gemin2 (full-length) (human, UniProt O14893 1-280).
T1 construct: Gemin2, human, full length; source: coexpressed with SMN_(Ge2BD) (pCDF-HT-Gemin2); not shown: His6, N-terminal, cleaved
T1 sequence (looked up): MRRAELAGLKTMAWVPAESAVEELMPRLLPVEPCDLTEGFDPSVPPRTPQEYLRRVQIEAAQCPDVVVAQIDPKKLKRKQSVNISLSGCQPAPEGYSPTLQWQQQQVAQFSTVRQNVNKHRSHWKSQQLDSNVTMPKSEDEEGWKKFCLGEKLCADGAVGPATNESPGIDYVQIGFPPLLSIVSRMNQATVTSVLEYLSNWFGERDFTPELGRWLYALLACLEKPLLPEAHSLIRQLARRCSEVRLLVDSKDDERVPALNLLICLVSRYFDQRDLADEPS
Description: crystal structure; Complexes A, B and C; hanging-drop vapor diffusion at 20°C, 1-6% PEG8000, 100 mM Tris-HCl pH 7.5-8.2; solved by molecular replacement with PDB 3S6N. Conditions: both partners purified.

In test [2] the target is T2, Gemin2ΔN39 (human, UniProt O14893 40-280).
T2 construct: Gemin2, human, N-terminal 39 residues deleted (residues 40-280 left); also called Gemin2 residues 40–280; source: coexpressed with SMN_(Ge2BD) (pCDF-HT-Gemin2ΔN39); not shown: His6, N-terminal, cleaved
T2 sequence (looked up): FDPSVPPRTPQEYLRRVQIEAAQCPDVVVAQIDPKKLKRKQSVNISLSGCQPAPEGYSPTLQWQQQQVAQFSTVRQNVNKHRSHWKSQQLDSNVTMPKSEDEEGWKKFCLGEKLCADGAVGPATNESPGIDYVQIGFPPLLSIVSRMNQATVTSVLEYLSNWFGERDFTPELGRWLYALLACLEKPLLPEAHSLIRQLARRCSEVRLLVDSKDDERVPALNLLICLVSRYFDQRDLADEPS
The test is described as above. Conditions: both partners purified.

B1: SMN_(Ge2BD), SMN residues 26–62 (domain or fragment, human, UniProt Q16637 26-62, looked up)
chain: GQSDDSDIWDDTALIKAYDKAVASFKHALKNGDICET
notes: also called SMN(26-62); SMN (26–62) peptide; source: coexpressed with Gemin2 or Gemin2ΔN39 (pET21-HMT-SMN_(Ge2BD)); not shown: His6, N-terminal, cleaved; MBP, N-terminal, cleaved
For B1, the binding result in test [1] and in test [2] was “binds” each time.

Source of the values: publication PMC6954390, “Negative cooperativity between Gemin2 and RNA provides insights into RNA selection and the SMN complex's release in snRNP assembly” (Nucleic Acids Research, 2019).
